From patent US7339039B2, “Nucleic acids encoding receptor recognition factors, and methods of use thereof” (The Rockfeller University, priority 1992, dated 2008)

System: Stat84 and Stat91L homodimers
Assay: Dissociation-reassociation analysis (gel mobility shift with GAS probe)
Format: biochemical, human
Conditions: GST fusion protein 0.5 to 5 μM
Procedure: Gel Mobility Shift Assays. Gel mobility shift assays were carried out as described (34). An oligonucleotide corresponding to the GAS element from the human FcγRI receptor gene (Pearse et al. 1993) was synthesized and used for gel mobility shift assays. The oligonucleotide has the following sequence: 5′[…]3′ (SEQ. ID NO:17).
Dissociation-reassociation Analysis. Extracts were incubated with various concentrations of peptides or fusion proteins, and ^32P-labeled GAS oligonucleotide probe in gel shift buffer was then added to promote the formation of protein-DNA complex followed by mobility shift analysis.
Dimerization of Stat91 Involves Phosphoryrosyl Peptide and SH2 Interactions. Based on the results described above, we devised a dissociation-reassociation assay in the absence of guanidium hydrochloride to explore the possible nature of interactions involved in dimer formation (FIG. 20). When the short and the long forms of a homodimer are mixed with a dissociating agent (e.g., a peptide containing the putative dimerization domain), the subunits of the dimer should dissociate (in a concentration dependent fashion) due to the interaction of the agent with the dimerization domain(s) of the protein. […] At high concentration of the dissociating agent, subunits of the dimer may not be able to re-form and no DNA-protein complexes would be detected (FIG. 20).

Stat84 and Stat91L homodimers, sequence (P42224 2-712 limits assumed): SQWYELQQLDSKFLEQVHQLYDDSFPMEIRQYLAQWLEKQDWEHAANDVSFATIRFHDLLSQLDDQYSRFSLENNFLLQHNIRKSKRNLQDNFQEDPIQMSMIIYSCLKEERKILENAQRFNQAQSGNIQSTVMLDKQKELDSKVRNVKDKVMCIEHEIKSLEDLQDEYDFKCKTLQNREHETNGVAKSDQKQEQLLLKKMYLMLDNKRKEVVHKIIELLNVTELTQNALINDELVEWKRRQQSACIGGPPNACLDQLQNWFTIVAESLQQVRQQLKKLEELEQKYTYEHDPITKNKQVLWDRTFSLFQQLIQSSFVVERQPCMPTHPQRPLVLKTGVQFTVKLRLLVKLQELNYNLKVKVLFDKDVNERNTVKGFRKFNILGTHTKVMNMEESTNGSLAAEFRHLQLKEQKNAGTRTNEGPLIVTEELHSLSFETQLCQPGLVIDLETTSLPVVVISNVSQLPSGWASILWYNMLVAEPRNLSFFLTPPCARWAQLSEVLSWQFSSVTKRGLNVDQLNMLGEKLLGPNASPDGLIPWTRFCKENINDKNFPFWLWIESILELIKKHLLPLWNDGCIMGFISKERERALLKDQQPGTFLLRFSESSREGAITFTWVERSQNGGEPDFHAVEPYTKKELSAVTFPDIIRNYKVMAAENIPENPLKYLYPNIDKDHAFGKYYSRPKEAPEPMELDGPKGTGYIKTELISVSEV

B1: GST-91SH2: GST fusion protein encoding amino acids 573 to 672 of Stat91 (protein)
chain: WNDGCIMGFISKERERALLKDQQPGTFLLRFSESSREGAITFTWVERSQNGGEPDFHAVEPYTKKELSAVTFPDIIRNYKVMAAENIPENPLKYLYPNID
modifications: left off: a dimerising Fc or GST
notes: GST fusion protein encoding amino acids 573 to 672 of Stat91
  formation of heterodimer / exchange of subunits between Stat84 and Stat91L homodimers: promoted the formation of a heterodimer
